Laboratory results reported in patent CN115819596A.

Molecular target: 食蟹猴CEACAM6蛋白 (cynomolgus CEACAM6 protein) (cynomolgus monkey)
Test: ELISA, plate-coated cynomolgus CEACAM6 protein

EC50: 463 pM
B1: UM05-L9 (antibody, human IgG1, kappa, V domains shown)
VH: QVQLQQSGPELVRPGVSVKISCKGSGYTFTDYAMHWVKQSHAKSLEWIGVISTYSGHTNYNQKFKGKAIMTVDKSSSTAYMDLARLTSEDSAIYYCVRGSTTAHYYTMDFWGQGTSVTVSS
VL: DIQMTQSPVSLSASVGETVTITCGASENIYGTLNWYQRKQGKSPQLLIYGATNLADGVSSRFSGSGSGRQYSLKISSLHPDDVATYYCQNVLSIPYTFGGGTKLEIKR
